Data on 19 molecules can be found in patent US20170334973A1 (INTEGRATED BIOTHERAPEUTICS, published 2017).

Residue numbers refer to the chain shown, from its start.

The chains are these.
B1: FVM03 (antibody, V domains shown)
VH: QVQLQESGPVLVKPSETLSLTCAVSGYSISSAYAWSWIRQPPGKGLEWVGYVGSSSDYNPSLKSRVTISRDTSKNRIFLNLRSLTAADTAVYYCARDRANNSMDVWGRGVLVTVSS
VL: EIVLTQSPDSLGVSLGERVTINCKSSQSLLYSSNNKNYLAWYQQKPGQAPKLLIYWASTRESGVPNRFSGSGSGTDFTLTISGLQAEDVAVYYCQQYYSTPLTFGQGTKVEIKR
B2: FVM02P (antibody, V domains shown)
VH: EVQLVESGGGLVQPGGSLRLSCAASGFTGFTFSDYAFYWVRQAPGKGLEWVGFIRGKAYGGTADYAASVKGRFTISRDNSKNTAYLQMSSLKTEDSAVYYCTSQGVTVATPYHWGQGVLVTVSS
VL: DIVLTQSPLSLPVTPGEPASISCRSSQSLLHSGGKTYLYWYLQKPGQSPQLLIHEVSNRASGVPDRFSGSGSGTDFTLKISRVEAEDVGVYYCMQGIQLPLTFGGGTKVEIKR
B3: FVM33 (antibody, V domains shown)
VH: QVQLVQSGAEVKRPGESLKISCKTSRYSFTSSWIGWVRQMPGKGLEWLGSIYPGDSDTRYNPSFQGHVTISADKSVTTTYLKWSSLKASDTATYYCVKGSETWGQGVLVTVSS
VL: QPVLTQPASLSASPGASASLTCTFSGGINVAGYNILWYQQKAGSPPRYLLRYKSDSTKDQGSGVPSRFSGSKDASANTGILRISGLQSEDEADYYCAIGHSSGWIFGGGTRLTVL
B4: FVM18 (antibody, V domains shown)
VH: B3 VH with R26G, S31N, S32I, G35S, D57E, R59K
VL: NFMLTQPASLSASPGASASLTCTFSGGINVAGYHILWYQQKPGSPPRYLLRYKSDSEKDQGSGVPSRFSGSKDASANRGILRISGLQSEDEADYYCAIGHSSSGWVFGGGTRLTVL
B5: FVM24 (antibody, V domains shown)
VH: EVQLVQSGAEVKRPGESLKISCKTSGYSFTDSWVAWVRQMPGKGLEWMGSIYPGDFQTRYNPSFQGHVTLSADKSISTTYLQWSSLKASDTATYYCVKGSETWGPGVLVTVSS
VL: B3 VL with Q1S, P2S, V3G, A74V, E89D
B6: FVM23 (antibody, V domains shown)
VH: QVQLVQSGAEVKRPGESLTISCKTSGYSFTGSWISWVRQMPGKGLEWMGSIYPGDSDTTYNPSFQGHVTISADKSISTAYLQWTSLKASDTATYYCVKGSETWGQGVLVTVSS
VL: B3 VL with Q1S, P2Y, V3E, W104L, G108A
B7: FVM19 (antibody, V domains shown)
VH: B3 VH with K19T, R26G, S31D, I34V, G35A, R59K
VL: B3 VL with Q1K, V3M, N34H, L36F, A42P, T57D, D59G, W104L, I105L
B8: FVM13 (antibody, V domains shown)
VH: B3 VH with Q1E, R26G, S28T, G35S, K74T, V76I, T77I, Y80H, K82Q
VL: B3 VL with Q1K, V3M, A8T
B9: FVM12 (antibody, V domains shown)
VH: B3 VH with Q1E, K19T, R26E, S31G, G35S, L48M, N61S, H67Q
VL: B3 VL with P14L, A42P, Y48F, T57D, K58N, D59V, R67H, A76T, I105V
B10: FVM25 (antibody, V domains shown)
VH: EVQLVHSGAEVKRPGESLTISCKTSGYTFTDYWIAWVRQMPGKGLEWMASIYPDDSDTRYNPSFQGHVTISADKSISTTYLQWSSLRASDTATYYCVKGSETWGQGVLVTVSS
VL: B3 VL with P2L, A16T, A42P, Y48F, T57D, K58N, D59V, R67H, A76T, I105V
B11: FVM32 (antibody, V domains shown)
VH: B3 VH with K19R, R26G, S31D, I34V, G35A, N61S, H67Q, V76I, T79A
VL: B3 VL with S25N, N29T, A31P, N34D, A42S, A76T
B12: FVM21 (antibody, V domains shown)
VH: EVQLVESGAEVKRPGESLTISCKTSGYSFTDSWVAWVRQMPGKGLEWLGSIYPGDSETKYNPSFQGHVTISADKSISTTYLQWSSLRASDTATYYCVKGADDWGPGLLVTVSS
VL: B3 VL with Q1S, P2S, V3E, T57D, D59G
B13: FVM41 (antibody, V domains shown)
VH: B3 VH with Q1E, R26G, S31D, S32T, G35S, L48M, D57E, R59K
VL: B3 VL with Q1E, P2T, L4V, W104V, I105L
B14: FVM37 (antibody, V domains shown)
VH: B3 VH with R26G, S28R, G35S, D57E, R59K
VL: B3 VL with Q1S, P2S, V3E
B15: FVM34 (antibody, V domains shown)
VH: B3 VH with Q1E, Q6E, K19T, R26G, S31D, I34V, G35S, L48M, D57E, R59K
VL: B3 VL with N34Y, L36H, A42P, T57D, D59H, I105V
B16: FVM38 (antibody, V domains shown)
VH: B3 VH with K19T, R26G, S31D, L48M, G49A, G54D, D57E, R59K
VL: B3 VL
B17: FVM35 (antibody, V domains shown)
VH: B3 VH with Q1E, K19T, R26G, S32Y, G35T, D57E, R59K
VL: B3 VL
B18: FVM40 (antibody, V domains shown)
VH: B3 VH with Q1E, K19T, R26G, S31D, G35S, L48M, D57E, R59K
VL: B3 VL with V3M
B19: FVM28 (antibody, V domains shown)
VH: EVQLVQSGAEVKRPGESLKISCQTSGYRFTSSWISWVRQMPGKGLEWMGAIDPSDSETRYSPSFQGQVTISADKSISTAYLKWSSLKASDTATYYCVKGSETWGQGVLVTVSS
VL: B4 VL with N1Q, F2A, M3A

The target in one test is T1, MARV GPddmuc (Marburg virus (MARV), UniProt P35253 19-648). The test can be described thus: ELISA. On the technique in general: An ELISA detects its analyte on a solid surface through an enzyme-linked reagent.
Take B1: it took 0.306 nM to reach a half-maximal effect (EC50).

B2 gave a 50% effective concentration (EC50) of over 10 nM.

Another test deals with T2, SUDV GPddmuc (Sudan virus (SUDV), UniProt Q66814 33-650). The test can be described thus: ELISA.
On to B2, for which the EC50 turned out to be 0.158 nM.

B3: a half-maximal effect (EC50) was put at 0.04 nM. Against the preceding molecule, the EC50 is about 4-fold lower.

B4 yielded a concentration giving a half-maximal response (EC50) of 0.108 nM.

On to B5, for which a half-maximal response (EC50) required 0.12 nM. The EC50 values of the last two molecules are within 1.5-fold of each other.

In turn, B6 came in with a half-maximal effective concentration (EC50) of 0.08 nM.

In turn, B7 registered an EC50 of 0.267 nM.

In the case of B8, the midpoint of the response, the EC50, lay at 0.051 nM.

B9 showed an EC50 of 0.081 nM. This EC50 is about 1.6-fold higher than that of the molecule before.

The molecule B10 returned a concentration for a half-maximal effect (EC50) of 0.18 nM.

In the case of B11, the 50% effective concentration (EC50) came to 0.127 nM.

For the molecule B12, the response was half-maximal at 0.067 nM (EC50).

On to B13, for which the EC50 is 0.053 nM. This EC50 and that of the molecule before are within 1.5-fold of each other.

As to B14, the concentration for a half-maximal effect (EC50) stood at 0.033 nM.

Take B15: a half-maximal response (EC50) required 0.027 nM. This EC50 and that of the molecule before are within 1.5-fold of each other.

Consider B16, for which the EC50 stood at 0.053 nM.

The molecule B17 gave an EC50 of 0.033 nM.

Consider B18, for which the response was half-maximal at 0.033 nM (EC50).

B19 yielded an EC50 of 0.047 nM.

Another test addresses T3, EBOV GPddmuc (Ebola virus (EBOV), UniProt Q05320 33-650). The test can be described thus: ELISA.
Molecule B2 showed an EC50 of 0.127 nM.

Consider B3, for which the half-maximal effective concentration (EC50) worked out at 0.04 nM.

As for B4, it took 0.101 nM to reach a half-maximal effect (EC50).

As to B5, the concentration for a half-maximal effect (EC50) stood at 0.153 nM.

With B6, the EC50 amounted to 0.087 nM.

In the case of B7, the EC50 was 0.12 nM.

As to B8, the half-maximal effective concentration (EC50) was determined as 0.062 nM.

B9 displayed an EC50 of 0.091 nM.

Turning to B10, the half-maximal effective concentration (EC50) turned out to be 0.12 nM.

In turn, B11 had an EC50 of 0.073 nM.

Molecule B12 gave an EC50 of 0.067 nM. This EC50 and that of the molecule before are within 1.5-fold of each other.

In turn, B13 showed an EC50 of 0.047 nM.

In turn, B14 had an EC50 of 0.047 nM.

B15 came in with an EC50 of 0.027 nM. Compared with the last molecule, the EC50 is about 1.7-fold lower.

Regarding B16, the EC50 was found to be 0.06 nM.

For the molecule B17, the concentration for a half-maximal effect (EC50) came out at 0.033 nM.

In the case of B18, the half-maximal effective concentration (EC50) was found to be 0.04 nM.

As to B19, the concentration giving a half-maximal response (EC50) turned out to be 0.047 nM.

In a further test the target is T1, MARV GPddmuc. Put plainly: native ELISA.
On to B3, for which the binding result was “no binding”.

Turning to B4, the binding result is “no binding”.

Turning to B5, the binding result is reported as “no binding”.

Regarding B6, the binding result is recorded as “no binding”.

Turning to B7, the binding result is “no binding”.

For B8, the binding result was “no binding”.

For B9, the binding result is “no binding”.

Turning to B10, the binding result is given as “no binding”.

B11: the binding result is “no binding”.

On to B12, for which the binding result is listed as “no binding”.

With B13, the binding result was “no binding”.

As to B14, the binding result is “no binding”.

For the molecule B15, the binding result is “no binding”.

On to B16, for which the binding result is listed as “no binding”.

With B17, the binding result is given as “no binding”.

In the case of B18, the binding result is “no binding”.

Turning to B19, the binding result was “no binding”.

A further test has as its target T2, SUDV GPddmuc. The test can be described thus: native ELISA.
For the molecule B1, the binding result was “no binding”.

In the next test the target is T3, EBOV GPddmuc. Put plainly: native ELISA.
Turning to B1, the binding result was “no binding”.

For orientation: EC50 means the concentration giving half of the maximal effect.
